Experimental findings from patent publication US20140308201A1 (Novartis, published 2014) are described below.

One experiment deals with T1, FGFR2 D2 (human).
T1 construct: trypsin was added to the complex before crystallisation; also called FGFR D2; human FGFR2 ECD fragment (domain 2)
T1 chain: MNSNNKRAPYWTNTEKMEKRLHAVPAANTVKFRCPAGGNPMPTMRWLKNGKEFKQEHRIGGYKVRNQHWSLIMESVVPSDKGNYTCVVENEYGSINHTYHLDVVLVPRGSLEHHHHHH
Nature of the experiment: complex purified by size exclusion chromatography and crystallised. On the technique in general: SEC sorts molecules by how far they enter the pores of the column.

The target of experiment [1] is T2, Human FGFR2 IIIb D1-3 (human).
T2 construct: Extracellular domains D1-3 with C-terminal tag, made in HEK293T; also called recombinant human FGFR2 IIIb; hFGFR2
T2 chain: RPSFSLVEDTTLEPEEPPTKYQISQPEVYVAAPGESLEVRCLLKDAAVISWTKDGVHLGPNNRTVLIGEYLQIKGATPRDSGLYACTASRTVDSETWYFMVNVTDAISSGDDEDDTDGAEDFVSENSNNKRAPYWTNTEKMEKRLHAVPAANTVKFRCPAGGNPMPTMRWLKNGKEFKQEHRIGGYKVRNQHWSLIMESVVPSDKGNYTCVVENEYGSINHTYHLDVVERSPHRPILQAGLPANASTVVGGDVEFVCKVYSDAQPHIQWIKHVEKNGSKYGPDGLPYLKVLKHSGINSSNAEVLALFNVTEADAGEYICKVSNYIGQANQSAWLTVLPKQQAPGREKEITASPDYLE
Put plainly: SPR Biacore, IgG captured via anti-human Fc, soluble FGFR as analyte. The method, then: (§1) Affinity of the antibodies to FGFR2 species orthologues was determined using Biacore technology using a Biacore T100 instrument (GE Systems) and with CM5 sensor chips.
(§2) For kinetic measurements, experiments were performed in which the antibodies were immobilized to the sensor chip surface and the ability of the FGFR proteins described above listed in Table 1 to bind in free solution was determined Briefly, 50 μg/ml of anti-human Fc antibody at pH 4.75 was immobilized on a CM5 sensor chip through amine coupling at flow rate of 10 μl/minute on all four flow cells to reach 6000 RUs. […] Subsequently, 0.078-100 nM of FGFR receptors, diluted in a 2-fold series, were injected at a flow rate of 80 μl/min for 7 min over both reference and test flow cells. Dissociation of the binding was followed for 10 min using HBS-EP⁺ supplemented with 0.5 mg/ml of BSA and 10 μg/ml heparin as running buffer. After each injection cycle, the chip surface was regenerated with 10 mM glycine, pH 2.0 at 60 μl/min for 70 s.
(In general: Surface plasmon resonance follows binding to a sensor surface in real time, without labels.)

The target in experiment [2] is T3, Mouse FGFR2 IIIb D1-3 (mouse).
T3 construct: Extracellular domains with C-terminal tag
The description is as above. The protocol: as §1, §2

For experiment [3], the target named is T4, Cynomolgus monkey FGFR2 IIIb D1-3 (cynomolgus monkey).
T4 construct: also called Cyno FGFR2 IIIb
T4 chain: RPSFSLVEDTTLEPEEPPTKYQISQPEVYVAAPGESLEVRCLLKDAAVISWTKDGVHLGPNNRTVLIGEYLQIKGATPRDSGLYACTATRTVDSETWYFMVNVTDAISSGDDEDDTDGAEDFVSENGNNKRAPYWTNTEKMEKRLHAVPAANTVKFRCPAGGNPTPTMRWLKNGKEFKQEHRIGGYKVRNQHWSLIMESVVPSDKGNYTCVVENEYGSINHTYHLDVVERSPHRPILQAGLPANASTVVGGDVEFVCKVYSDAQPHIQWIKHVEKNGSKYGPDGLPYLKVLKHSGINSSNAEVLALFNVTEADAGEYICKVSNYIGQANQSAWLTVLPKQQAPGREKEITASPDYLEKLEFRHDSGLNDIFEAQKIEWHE
The experiment is described as above. The protocol: as §1, §2

Experiment [4] deals with T5, Rat FGFR2 IIIb D1-3 (rat).
T5 construct: Extracellular domains with C-terminal tag
Described as above. The method, then:
as §1, §2

In experiment [5] the target is T2, Human FGFR2 IIIb D1-3. Nature of the experiment: SPR Biacore, method as Example 2. The protocol: as §2
Experiment [6] deals with T3, Mouse FGFR2 IIIb D1-3. Put plainly: SPR Biacore, method as Example 2. The method, then: as §2
In experiment [7] the target is T4, Cynomolgus monkey FGFR2 IIIb D1-3. Nature of the experiment: SPR Biacore, method as Example 2. The protocol: as §2
The target of experiment [8] is T5, Rat FGFR2 IIIb D1-3. Nature of the experiment: SPR Biacore, method as Example 2. The method, then:
as §2

The next experiment concerns the target T6, FGFR2 D2-D3 Construct (human).
T6 construct: E. coli made, not glycosylated; also called E. Coli. derived FGFR2D2-D3 protein
T6 chain: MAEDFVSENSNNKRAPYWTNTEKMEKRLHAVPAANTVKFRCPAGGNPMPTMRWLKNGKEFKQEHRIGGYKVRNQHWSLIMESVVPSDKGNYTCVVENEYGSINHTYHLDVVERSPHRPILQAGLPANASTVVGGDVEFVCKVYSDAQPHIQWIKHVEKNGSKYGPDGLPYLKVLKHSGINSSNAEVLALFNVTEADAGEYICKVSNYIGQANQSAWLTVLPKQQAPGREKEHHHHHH
Put plainly: HDx-MS, antigen incubated 30 min with antibody. The protocol: The epitope mapping experiments described in this example were performed on a Waters HDx-MS platform, which includes a LEAP autosampler, nanoACQUITY UPLC System, and Synapt G2 mass spectrometer. The studies were automated by a LEAP autosampler operated by the LeapShell software, which performed initiation of the deuterium exchange reaction, reaction time control, quench reaction, injection onto the UPLC system and digestion time control. The Leap autosampler was equipped with two temperature controlled stacks maintained at 25° C. for HDx reaction and maintained at 2° C. for storage of protein and quench solution, respectively. Triplicate control experiments were carried out on antigen at a deuterium exchange time of 25 minutes. HDX was quenched with quenching buffer (6 M urea and 1 M TCEP pH=2.5). […] Triplicate experiments were carried out on antigen-mAb complex just as the control experiments except in these experiments the antigen in incubated for 30 min with the antibody at 25° C. prior to deuterium exchange.

The target of experiment [9] is T2, Human FGFR2 IIIb D1-3. Put plainly: SPR Biacore, method as Example 2. The protocol:
as §2

T5 sequence (P21803 other isoform, or with tags, fused parts or gaps): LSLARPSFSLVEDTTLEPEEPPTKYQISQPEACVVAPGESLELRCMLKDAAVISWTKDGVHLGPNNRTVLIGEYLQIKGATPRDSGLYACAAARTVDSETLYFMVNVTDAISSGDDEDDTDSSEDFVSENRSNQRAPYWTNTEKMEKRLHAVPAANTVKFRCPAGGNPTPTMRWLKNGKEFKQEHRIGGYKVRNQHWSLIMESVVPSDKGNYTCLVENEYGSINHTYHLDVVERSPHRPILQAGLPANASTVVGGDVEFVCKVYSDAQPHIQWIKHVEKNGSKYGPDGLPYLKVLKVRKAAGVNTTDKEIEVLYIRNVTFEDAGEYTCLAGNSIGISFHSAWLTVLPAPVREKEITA

B1: 12425 Fab (Fab, V domains shown)
VH: QVQLLESGGGLVQPGGSLRLSCAASGFTFSDYAMSWVRQAPGKGLEWVSVIEGDGSYTHYADSVKGRFTISRDNSKNTLYLQMNSLRAEDTAVYYCAREKTYSSAFDYWGQGTLVTVSS
VL: DIQMTQSPSSLSASVGDRVTITCRASQDISSDLNWYQQKPGKAPKLLIYDASNLQSGVPSRFSGSGSGTDFTLTISSLQPEDFAVYYCQQHYSPSHTFGQGTKVEIKR
Take B1: the binding result with FGFR2 D2 is “binds”.

B2: mAb12433 (antibody, human IgG1, kappa, V domains shown)
VH: QVQLVQSGAEVKKPGESLKISCKGSGYSFTNYYIHWVRQMPGKGLEWMGAIYPDNSDTTYSPSFQGQVTISADKSISTAYLQWSSLKASDTAMYYCARGADIWGQGTLVTVSS
VL: DIQMTQSPSSLSASVGDRVTITCRASQDIDPYLSNWYQQKPGKAPKLLIYDASNLQSGVPSRFSGSGSGTDFTLTISSLQPEDFATYYCQQTTSHPYTFGQGTKVEIKR
notes: HuCAL human IgG1
Turning to B2, the Kd turned out to be 5.6 nM in the experiment with Human FGFR2 IIIb D1-3 [1]; 8 nM in the experiment with Mouse FGFR2 IIIb D1-3 [2]; 12 nM in [3]; 12 nM with Rat FGFR2 IIIb D1-3 [4]; 5.6 nM in the experiment with Human FGFR2 IIIb D1-3 [5]; 2.2 nM with Mouse FGFR2 IIIb D1-3 [6]. In addition, the Kd in experiment [7] turned out to be 1.7 nM; with Rat FGFR2 IIIb D1-3 [8], 3.7 nM; in the experiment with Human FGFR2 IIIb D1-3 [9], 5.6 nM. The binding result with FGFR2 D2-D3 Construct is “binds”.

One may read the Kd as the constant that tells how readily two partners part at equilibrium.
